Variants at the floor of the assay were thinned out.
B1: TPR 5TU (parent)
chain: GGAUCUUCUCGAUCUAACAAAAAAGACAAAUCUGCCACAAAGCUUGAGAGCAUCUUCGGAUGCAGAGGCGGCAGCCUUCGGUGGCGCGAUAGCGCCAACGUUCUCAACUAUGACACGCAAAACGCGUGCUCCGUUGAAUGGAGUUUAUCAUG

Variants of: B1
Experiment: polymerase ribozyme fitness, log enrichment relative to wild type (log ratio); higher = more active; in vitro selection for triplet polymerase activity
How it was run: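 Mutant libraries of each subunit of a heterodimeric triplet polymerase ribozyme were built by PCR and transcribed. Each library went through one round of in vitro selection in triplicate: annealing with biotinylated primer, partner subunit and triplets, frozen incubation at −7 °C, gel excision of extended constructs, streptavidin-bead capture and RT-PCR. Input and output libraries were Illumina-sequenced; only genotypes with ≥10 input reads and ≥1 read per output were kept. Fitness is log2(genotype enrichment/wild-type enrichment), using inverse-variance-weighted replicate averages.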

| Variant | polymerase ribozyme fitness (log ratio) |
| --- | --- |
| GGAUCUUCUCGAUCUAACAAAAAAGACAAAUCGGCCACAAAGCUUGAGAGCAUCUUCGGAAGCAGAGGCGGCAGCCUUCGGUGGCGCGAUAGCGCCAACGUUCUCAACUAUGACACGCAAAACGCGUGCUCCGUUGAAUGGAGUUUAUCAUG | -3.72 |
| GGAUCUUCUCGAUCUAACAAAAAAGACAAAUCGGCCACAAAGCUUGAGAGCAUCAUCGGAUGCAGAGGCAGCAGCCUUCCGUGGCGCGAUAGCGCCAACGUUCUCAACUAUGACACGCAAAACGCGUGCUCCGUUGAAUGGAGUUUAUCAUG | ≤ -4.2 |
| GGAUCUUCUCGAUCUAACAAAAAAGACAAAUCUACCACAAAGCUUGAGAGCAUCUUCGGAUGCAGAGGCGGCAGCCUUCGGUGGCGCGAUAGCGCCAACGUUCUCUACUAUGACACGCAAAACGCGUGCUCCGUUGAAUGGUGUUUAUCAUG | ≤ -4.2 |
| GGAUCUUCUCGAUCUAACAAAAAAGACAAAUCGGCCACAAAGCUUGAGAGCAUCGUCGGAUGCAGAGACGGCAGCCUUAGGUGUCGCGAUAGCGCCAACGUUCUCAACUAUGACACGCAAAACGCGUGCUCCGUUUAAUGGAGUUUAUCAUG | ≤ -4.2 |
| GGAUCUUCUCGAUCUAACAAAAAAGACAAAUCUACCACAAAGCUUGAGAGCAUCUUCGGAUGCAGAGGCGGCAGCCUUCGGUGGCGCGAUAGCGCCAACGUUCUCAACUAUGACACGCAAAACGCGUGCUCCGUUGAAUGGAGUUUAUCAUG | -0.292 |
| GGAUCUUCUCGAUCUAACAAAAAAGACAAAUCUACCACAUAGCUCGAGAGCAUCUUCGGAUGCAGAGGAGGCAGCAUUCGGUGGCGUGAUAGCACCAACGUUCUCGACUAUGACACGCAAAUCCCGUGCUCCGUUGAAUGGAGUUUAUCAAG | ≤ -4.2 |
| GGAUCUUCUCGAUCUAACAAAAAAGACAAAUCGGCCACAAAGCUUGAGAGCAUCUACGGAUGCAGAGGCGGCAGCCUUCGGUGGCGCGAAAGCGCCAACGGUCUCAAGUAUGACACGCUAAACGCGUGCUCCGUCAAAUGGAGUUUAUCAUG | ≤ -4.2 |
| GGAUCUUCUCGAUCUAACAAAAAAGACAAAUCUACCACAAGGCUUGAGAGCAUCUUCGGAUGCAGAGGCGGCAGCCUUCGGUGGCGCGAUAGCGCCAACGUUCUCAACUAUGACACGCAUAACGCGUGCUCCGUUGAAUGGAGUUUAUCAUG | -1.2 |
| GGAUCUUCUCGAUCUAACAAAAAAGACAAAUCGGCCACAAAGCUUGAGAGCAUCUACGGAUGCAGAGGCGGCAGCCUUCGGUGGCGCGAUUGCGCCAACGUUCUCAACUAUGACAUGCAAAACGCGUGCUCCGUUGAAUGGAGUUUAUCAUG | -3.95 |
| GGAUCUUCUCGAUCUAACAAAAAAGACAAAUCUACCACAAAGCUUGAGCGCAUCUUCGGAUGCAGAGGCGGCAGCCUUCGGUGGCGCGAUAGCGUCAACGUUCUCAACUAUGACACGCAAAACGCGUGCUCCGUUGAAUUAAGUUUAUCAUG | ≤ -4.2 |
| GGAUCUUCUCGAUCUAACAAAAAAGACAAAUCUACCCCAAAGUUUGAGAGCAUCUUCGGAUGCAGAGGCGGCAGCCUUCGGUGGCGCGAUAGCGCCAACGUUCUCAACUAUGACACGCAAAACGGGUGCACCGUUGAAUGGAGUUUAUAAUG | ≤ -4.2 |
| GGAUCUUCUCGAUCUAACAAAAAAGACAAAUCGGCCACAAAGCAUCAGAGCAUCUUCGGAUGCAGAGGCGGCGGCAUUCGGUGGCGCGAUAGCGUCAACGUUCUCAACUAUGACACGCAAAACGCGUGCUCCUUUGAAUGGAGUUUAUCAUG | ≤ -4.2 |
| GGAUCUUCUCGAUCUAACAAAAAAGACAAAUCGGCCACAAAGCAUGAGAGCAUCUUCGGAUGCAGAGGCGGCAGCCUUCGGUGGCGCGAUAGCGCCAACGUUCUCAACUAUGACACGCAAAACGCGUGCUCCGUUGAAUGGGGUUUAUCAUG | ≤ -4.2 |
| GGAUCUUCUCGAUCUAACAAAAAAGACAAAUCGGCCACAAAGCUUGAGAGCAACUUCAGAUGCAGAGGCGGCAGCCUUCGGUGGCGCGAUAGCGCCAACGUUCUCAACUAUGACACGCAAAACGCGUGCUCCGUUGAAUGGAGUUUAUCAUG | -3.78 |
| GGAUCUUCUCGAUCUAACAAAAAAGACAAAUCGGCCACAAAGCUUGAGAGCAUCUCCGGAUGCAGAGGCGGCAGCCUUCGCUGGCGCGAUAGCGUCAACGUUCUCAACUAUGACACGCAAAACGCGUGCUCCGUUGAAUGGAGUUUAUCAUG | -3.74 |
| GGAUCUUCUCGAUCUAACAAAAAAGACAAAUCGGCCACAAAGCUUGAGAGCAUCCUCGGAUGCAGAGGCGGCAGCUUUCGGUGGCUCGAUAGCGCCAACGUUCUAAACUAUGACAUGCAAAACGCGUGCUCCGUUGAAUGGAGUUUAUCAUG | ≤ -4.2 |
| GGAUCUUCUCGAUCUAACAAAAAAGACAAAUCUACAACAAAGCUUGAGAGCAUCUUCGGAUGCAGAGGCGGCAGCCUUCGGUGGCGCGAUAGCGCCAACGUUCUCAACUAUGACACGCAAAACGCGUGCUCCGUUGGAUGGAGUUUAUCAUG | ≤ -4.2 |
| GGAUCUUCUCGAUCUAACAAAAAAGACAAAUCGGCCACAAAGCUUGAGAGCAACUUCGGAUGCAGAGGCGGCAGCCUUCGGUGGCGCGAUAGCGCCAACGUUCUCAACUAUGACACGCAAAACGCGUGCUCCGUUGAAUGGAGUUUAUCAUG | -3.68 |
| GGAUCUUCUCGAUCUAACAAAAAAGACAAAUCUACCACAAAGCUUGAGAGCAUCUUCGGAUGCAGAGGCGGCAGCCUUCGGUGGCGCGAUGGCGCCAACGUUCUCAACUAUGACACGCAAAACGCGUGCUCCGUUGAAUGGAGUUUAUCAUG | -3.57 |

Reference: the RNAGym collection of RNA variant scans (doi:10.1073/pnas.2313332121)
